Measured values reported in the DeepSol protein solubility set.

Experiment: soluble on expression in E. coli; label from the status in PepcDB or PDB records

Sequence	soluble on expression in E. coli
MGSDKIHHHHHHMSLPSIKTTNSYCVVLWCDQGSATINAPDRVVQVMAGDVVLAPHGAFVTGHGVVLPMAFPDFDGGEHTRRLHMGTAWSKRMIFEFSRSLLGETRPSECIAALFDDRARPPRVPEPQAARKVAQKLIAYPADQTPLLEFAQLHNISSRTLQRQFVASTGFTFSEWRAALRVSVAADLLAHDFRIGQVSQMVGFSATSSLTRAFKRHTGDTPSSFTSPRMHAVCEQQPPMIPATTTFARASDDIALWIYSGTATVTTPGYCRFMGAGETVTIPSGTSTRLDVSAGSVALPVPLAAAHDDLTLSDVLAASVNPLAAVELQRLSAQERADVEQVLVPSV	not soluble
MGSDKIHHHHHHMTPRISQKEVNDAVWNACDTFRGVVDASAYKDYVLTMLFLKYISDVWQDNYDTYKAEYGDAPELIEEMMKNERFVLPKDASFYALYERRFEAGNGERIDKALHAIEEANMGKLNDVFQDISFNSTKLGDDKQKNDILRHMLEDFSKPELNLRPSRIGNLDIIGNAYEFLIKHFAASSGKKAGEFYTPPEVSQLIAELVNPQEGDEICDPACGSASLLMKCAKLIKDRFGNRKYALYGQEAIGSTWSLAKMNMFLHSEDNHRIEWGDTLRNPLLLDGDDHLKHFDIVVANPPFSLDKWGHEAAEADRFGRFRRGIPPKTKGDYAFILHMIETLKPGTGRMGVVVPHGVLFRASSEGEIRKQLIKENLLDMVIGLPEKLFYGTGIPAAILVFRKNKKDNNVLFIDASREYQDGKNQNFLRDEDIQKVLDTAKARESVDKYAYLATLEEIRENDFNLNIPRYVDTFEEEEEIDLEAVLKERKELKADLAKLEVEMEGYLKELGYLTGEE	not soluble
MSLSGKKVIYFIPIVDTGAYWSPMKKAAEDEAKALGYDLVVKTSPPNETQKNEKHIGFLDEAIKNKAAGIAIAPMDPDMFDKKVKEANDKGIPVVTFDADVKTKENRTSYIGTDNKLAGEQLGENGAKALKEKGITKGKIAMAAVNLTQTTMTYRQDGIKSGFEKVMGADAKNFEWLEPIQDNDQSAESKRQLEGQITSNSDMVAVFSLGSEGPDTGVMEAIKSQGKSGSIYHFGFDYTPTWENGVSSNLISGIVDQDSYAIGKTIIDTLDKKIKGEKVDDVYPVPVKWVTPDKIVEYGKEKQKQFTTELKGIITITTDPNSSSVDKLAAALEHHHHHH	soluble
MGSDKIHHHHHHMNIDKLDYHSLIIFESISRHLNAGLVANELGMSISSVSRHLGILRDIFKDVLFIRRAQGFVLSDKAIQLLPYIKQLLHDYQVIKHNHIHFNPLTARGHFKIYAYNEFTYVINKVIHQYILPQAPNLTFEVRTLSSDCSRAIEHGEIDFAVVYERFKDHKIICEMFSPTEELFLIAKEGHAVFEDEFTLANLCQYDYFALDNYNDLPMPLLEQLGKTEGKAVNVLGATDNIAALSRHILDGRAISMSCNVFTREFYSLIKGIRTATLPSALTERLLKQITVGRTVGNYLIYSEINQSPTHHWLKQQLFNGIRDEWYLAMGR	not soluble
MPIRDDISWPPSAVCSVSLILHLPGRFGHVSVAHLLLDHGADVNAQNRLGASVLTVASRGGHLGVVKLLLEAGAFVDHHHPSGEQLGLGGSRDEPLDITALMAAIQHGHEAVVRLLMEWGADPNHAARTVGWSPLMLAALTGRLGVAQQLVEKGANPDHLSVLEKTAFEVALDCKHRDLVDYLDPLTTVRPKTGQAACPPWLHRGPQIVFMWLKLRIALLEGHAELRVQPCRPLRLRKWCA	soluble
MLTPPSLSLYIHIPWCVQKCPYCDFNSHAQKGEIPEQEYLDALLQDLDRDIERYQLKGDPRLLHSIFIGGGTPSLISAEGIARLLQGVAERIAFKPEIEITMEANPGTIEAQRFAGYRTAGVTRISIGVQSFEPEKLARLGRIHGQQEAVRAAQLAHQIGLNSFNLDLMHGLPDQTPEQALADLDQAIALNPPHLSWYQLTIEPNTLFYSKPPKLPDEDALWDIFELGHQKLSDAGYVQYEISGYSKPGYQCQHNLNYWRFGDYLGIGCGAHGKLSFADGRIVRTTKTKHPRGYLAALNNLAKAYLDSEQLVADQDKPFEFFMNRFRLIEPCPKADFTATTGLTIDVIRPTLDWALSEGYLSEDDQHWQITEKGKLFLNDLLEAFMADEEELEHHHHHH	not soluble
MGSDKIHHHHHHMNNIIATILKYAGLEGKAVIPLKGATSSYVFRAGDSVFRIHTNPAWLEQEPDLVAHEVFALRATGRLGPDVENYQLTWEGEIPPWIQMTCLPGEVRLEPLNRAYLKQLAKTLVAIHQLPVPEARYQYAPYVTKRTVPFWAVQKEMWQRAVAEPPATSQQVRFIHRDFHPVNVLYESAEKYNVVDWINGCVGPIEADVAHCRLNLMLLESVEAADQFLAEYIAYSGFSYDRKWDLTAVFDFEPDTLNVYPGWKAYGKANISQGNVRERMENIVLKVYENDESGY	not soluble
MGLLIDGVWHDQWYDTKSTGGSFKRQDAKFRNWITHDGSAGPSGTGGFTPDSGRYHLYISHACPWAHRTMIFRTLKGLEDHITISAVHPDMLGEGWTFEPDDNGATGDTLYNSAFARDIYTRADPRFTGRVTVPILWDKQRETIVSNESSEIIRMFNAAFNGLTGNSDDYWPEPLRDAIAPVNERIYDTFNNGVYKAGFATTQQAYDAAIVPLFDTLDWLEERLSHNRYLMGDQLTEADWRLFTTLVRFDPVYHLHFKCNRKRIVDYPNLWGYTRELYQTPGVADTVNFDHIVRHYHYSHETINPNRIIPINPVLDFHRPHGRGLEHHHHHH	soluble
MLDSYPGHFLPNTEAPTEEEALIALLALGGYDPDNMDGKPLTMESAVEILRKDGSALASLEEETILNLKETYVNSVGLLGKYVPKVYNGDILFFRSTVIPDWFDPISPNTWLNYLDGQIVQHDIDCRHKDLCQPGPLTEIGQVLAKYLQNKKGVSRV	not soluble
MCPCPHSQAQGETDGEAEWHNAALDFTHAMSYGDYLKLDKVLDAQFPLSPDHNEMLFIIQHQTSELWMKLMLHELRAAREHVKSGKLGPALKMLARVSRIFDQLVHAWAVLATMTPTEYNTIRPYLGQSSGFQSYQYREIEFILGNKNATLLKPHAHRAELLAALEQALHTPSLYDEAIRLMAAQGLPVSQERLARDAAAGTCYEASVEAAWRQVYQAPERYWDLYQLAEKLIDLEDSFRQWRFRHVTTVERIIGFKPGTGGTEGVGYLRSMLDTILFPELWRLRSNL	not soluble
DIQMTQSPSSLSASVGDRVTITCRASQDIPRSISGYVAWYQQKPGKAPKLLIYWGSYLYSGVPSRFSGSGSGTDFTLTISSLQPEDFATYYCQQHYTTPPTFGQGTKVEIKRTVAAPSVFIFPPSDEQLKSGTASVVCLLNNFYPREAKVQWKVDNALQSGNSQESVTEQDSKDSTYSLSSTLTLSKADYEKHKVYACEVTHQGLSSPVTKSFNRGEC	soluble
MGSDKIHHHHHHMNKVLNKESAPAYRLTPEWELYTSVVTTSLNNSFYEQEEERIERVRTLIGKCNPLFVAQLAAYARETMNLRSIPLVMAVELARIHQGDNLVKRVTARTVRRADEITELLACYQQANRRTGTKKLNRLSKQLQAGLQDAFNTFDAYQFAKYNRSAEVCLKDALFLVHPKAKDERQQEIFNGIVNDNLPVPYTWETELSALGQRTFATEEERRKAFRAKWEELIDSGKLGYMALLRNLRNILEAEVSADHILTVGKRLSSEKAVENSRQLPFRFLAAYRELSKTPSLYATMLMTALERAVQVSARNITGFDESTRVLIACDVSGSMQCPVSAKSKVLYYDIGLLLGMLLKSRCKQVMTGIFGDRWKIINLPDTGILSNVDAFYKREGEVGYSTNGYLVIKDLIDRKAQMDKIMMFTDCQLWNSHSDLQITDLWRKYKKICPAAKLYLFDLSGYGNTPLDITRDDVFLIAGWSDKIFDILSAIDKGNDALQEIKKIVV	not soluble
MNLSIFGLKNIPYLKEGDSIEKLIEESIKTSEFFIEDNDVLCIASKVVSIAEGQVMSLNEIQVSDVAKEIHRNIPRKDPRIIEIMLNLVNRDLSRLDIKKNYIGCRLENGLKLTSGGIDRKSVDEVFLLPNNPDASAKRISEYLKKSLGKNVAVVITDSDGREDKRGATQVAIGIYGIHPLRKTEVIDSQGETIKFQEETLCDMIAACAGLVMGQRGTGIPAVLIRGLDYKWSENTSIKEALNE	not soluble
MGSDKIHHHHHHMELGIIYSGEFGKRFVSNLAYPYLCPTFGACGINGCDYCKRYDFSSSIVYAKELAEPQEIGLYVEEPESYLEPFECDIAVAINVHPDILVSLPEIGEFKALIVPACNQNWCLPGLRKQLAEKCGELGIEFASPKPFCSLTGNSGWISRFIDEFKIGRPEFRVERGGDAIKKVEVIKSDPCGSAYFVAKRMTGYIIESKEDFWKEIHQHQCAYPCMASMDRDVELKEAPFHLAGYIMVYQFSTAAGVEAEEFVPEHFREIVCRAR	not soluble
